Where a chain is given by its changes, count along the chain named.
T1: CD32bECDHis (human, UniProt P31994 43-223, limits assumed)
T1 construct: Produced in HEK-293F cells; also called extracellular domain of CD32b with C-terminal His tag; soluble CD32b
T1 sequence (looked up): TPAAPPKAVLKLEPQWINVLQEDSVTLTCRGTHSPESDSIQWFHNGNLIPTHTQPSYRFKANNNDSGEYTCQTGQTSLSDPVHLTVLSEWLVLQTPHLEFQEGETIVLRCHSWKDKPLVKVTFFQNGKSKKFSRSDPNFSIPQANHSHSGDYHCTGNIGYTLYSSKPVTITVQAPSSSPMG

T2: biotinylated CD32bECDHis (human, UniProt P31994 43-223, limits assumed, biotinylated (sites not given))
T2 sequence (looked up): T1 sequence (looked up)

B1: Antibody 024 (antibody, V domains shown)
VH: QVQLVQSGAEVKKPGASVKVSCKASGYTFTSYGLSWVRQAPGQGLEWMGWISPYNGNTHYAQKLQGRVTMTTDTSTSTAYMDLRSLRSDDTAVYYCARDSAAHGMDVWGQGTTVTVSS
VL: DIQMTQSPSSLSASVGDRVTITCRASQGISSWLAWYQQKPEKAPKSLIYAASSLQSGVPSRFSGSRSGTDFTLTISSLQPEDFATYYCQQYNSYPYTFGQGTKLEIKR
notes: also called HuMab 024
B2: Antibody 020 (antibody, V domains shown)
VH: B1 VH with A9G, A24T, L34I, P53A, H59K, V68L, S77T, D82E
VL: B1 VL with S63R, R66G
notes: also called HuMab 020
B3: Antibody 022 (antibody, V domains shown)
VH: B1 VH with Y80D, D99A
VL: B1 VL
notes: also called HuMab 022
B4: Antibody 028 (antibody, V domains shown)
VH: B1 VH with L4V, A24T, L34I, P53A, H59K, V68L, S77T, D82E, T115S
VL: B1 VL
notes: List 1 gives no VL for antibody 028; The VL is therefore uncertain; also called HuMab 028
B5: Antibody 026 (antibody, V domains shown)
VH: B1 VH with P53A, H59N
VL: B1 VL
notes: Human antibody; also called HuMab 026
B6: Antibody 038 (antibody, human IgG1, V domains shown)
VH: QVQLVESGGGVVQPGRSLRLSCAASGFTFSTYGMHWVRQAPGKGLEWVAVISHDGSDKYYADSVKGRFTISRDNSKNTLYLQMNSLRAEDTAVYYCARDQSIIETFDYWGQGTLVTVSS
VL: EIVLTQSPATLSLSPGERATLSCRASQSVSSYLAWYQQKPGQAPRLLIYDASNRATGIPARFSGSGSGTDFTLTISSLEPEDFAVYYCQQRSNWGFTFGPGTKVDIKR
notes: Human antibody; also called HuMab 038

Target: T1, CD32bECDHis
Assay: ELISA on coated CD32bECDHis
Procedure: The specificity of the obtained anti-CD32b HuMabs was evaluated by ELISA. ELISA plates (Microlon; Greiner Bio-One) were coated overnight at 4° C. with 2 μg/ml of CD32aECDHis and CD32bECDHis in PBS, pH 7.4. Coated ELISA plates were washed with PBS, blocked for one hour at room temperature with 2% (v/v) chicken serum (Gibco, Paisley, Scotland) in PBS and washed again with PBS. Subsequently, HuMabs, serially diluted in PBSTC (PBS supplemented with 2% (v/v) chicken serum and 0.05% (v/v) Tween-20), were incubated for 1 hr at RT under shaking conditions (300 rpm). Bound HuMabs were detected using HRP-conjugated goat-anti-human IgG antibodies (Jackson ImmunoResearch Europe) diluted 1:10,000 in PBSTC, which were incubated for 1 hr at RT under shaking conditions (300 rpm). […] Binding curves were analyzed using non-linear regression (sigmoidal dose-response with variable slope) using GraphPad Prism V4.03 software.

EC50 | Binder
0.75 nM | B1
0.49 nM | B2
0.75 nM | B3
0.48 nM | B4
0.51 nM | B5
0.62 nM | B6

Target: T2, biotinylated CD32bECDHis
Assay: competition ELISA, competitor 022
Procedure: (§1) ELISA wells were coated overnight at 4° C. with anti-CD32b HuMabs serially diluted in PBS. The ELISA wells were washed with PBS, blocked for one hour at room temperature with 2% (v/v) chicken serum (Gibco, Paisley, Scotland) in PBS and washed again with PBS. Subsequently, the immobilized antibodies were incubated with biotinylated CD32bECDHis serially diluted in PBSTC. After washing with PBS/Tween, bound biotinylated CD32bECDHis was incubated with Streptavidin-poly-HRP (Sanquin, Amsterdam, The Netherlands) for 1 hr at RT an the reaction was developed as described supra.
(§2) To this end, ELISA wells coated with anti-CD32b HuMabs were incubated in the presence of an excess of CD32b-specific antibody and the predetermined concentration of biotinylated CD32bECDHis in fluid phase. The reaction was developed as described.

% residual binding | Binder
17% | B1
6% | B2
14% | B3
6% | B4
1% | B5
350% | B6

Target: T2, biotinylated CD32bECDHis
Assay: competition ELISA, competitor 026
Procedure: as §1, §2

% residual binding | Binder
56% | B1
28% | B2
42% | B3
32% | B4
4% | B5
308% | B6

Target: T2, biotinylated CD32bECDHis
Assay: competition ELISA, competitor 028
Procedure: as §1, §2

% residual binding | Binder
34% | B1
13% | B2
27% | B3
15% | B4
3% | B5
317% | B6

Target: T2, biotinylated CD32bECDHis
Assay: competition ELISA, competitor 038
Procedure: as §1, §2

% residual binding | Binder
103% | B1
120% | B2
115% | B3
121% | B4
127% | B5
17% | B6

Target: T2, biotinylated CD32bECDHis
Assay: competition ELISA, competitor 063
Procedure: as §1, §2

% residual binding | Binder
68% | B1
42% | B2
63% | B3
45% | B4
27% | B5
283% | B6

Target: T2, biotinylated CD32bECDHis
Assay: competition ELISA, competitor 2B6
Procedure: as §1, §2

% residual binding | Binder
98% | B1
126% | B2
96% | B3
125% | B4
146% | B5
5% | B6

Target: T1, CD32bECDHis
Assay: TR-FRET competition against HuMab-KLH-AlexaFluor 647
Source text: To study the interaction of anti-CD32b HuMabs with CD32b and CD32a in more detail TR-FRET technology was applied. To this end, CD32bECDHis and CD32aECDHis were labeled with a fluorescent donor molecule directed against the histidine tag (Anti-6×His Europium3+, PerkinElmer, Boston Mass.).
Briefly, all dilutions were made in 0.5× Lance detection buffer (PerkinElmer, Boston Mass.) supplemented with 0.2% BSA (obtained via dilution of 7.5% BSA Stabilizer solution, cat: CR84-100, PerkinElmer) and 0.03% (v/v) Tween-20 (Riedel de Haen, Seelze, Germany). CD32bECDHis and CD32aECDHis were diluted to 0.5 μg/ml. […] Anti-6×His Europium3+ (PerkinElmer, Boston Mass.) was diluted to 0.15 μg/ml. A 4-fold serial dilution of the tested HuMab antibody was made in a 96 wells non-binding plate (cat. 650261, Greiner Bio-one, Frickenhausen, Germany), ranging from 10 μg/ml-0.04 ng/ml. […] After overnight incubation at 4° C. in the dark, fluorescence was measured using an EnVision 2101 Multilabel reader (PerkinElmer, Boston, Mass.) applying the following settings; Lance/Delfia dual mirror, emission filter 615-665 nm, excitation filter 320 nm, delay time 60 μs, window 100 μs, 100 flashes, 2000 μs per cycle and bidirectional row-by-row reading. Binding curves were analyzed using non-linear regression (sigmoidal dose-response with variable slope) using GraphPad Prism V4.03 software (GraphPad Software, San Diego, Calif., USA).

% of maximal Fab-mediated inhibition | IC50 | Binder
~70% | 0.45 nM | B1
~70% | 0.35 nM | B2
~70% | 0.44 nM | B3
~70% | 0.35 nM | B4
~70% | 0.3 nM | B5
– | 0.37 nM | B6

Target: T1, CD32bECDHis
Assay: SPR BIAcore 3000, antibody immobilized, CD32bECDHis analyte
Procedure: Antibody binding to CD32a and CD32b was analyzed by surface plasmon resonance in a BIAcore 3000 (GE Healthcare). CD32aECDHis and CD32bECDHis derived from HEK293 cells were used for the analysis. HuMab antibodies were immobilized on the CM-5 sensor chip according to the procedure recommended by the manufacturer. Briefly, after surface activation by EDC and NHS HuMab antibody was injected over the activated CM-5 surface in 10 mM sodium-acetate, pH ranging from 4.0 to 5.5 at 5 μl/min. followed by 1 M Ethanolamine for deactivation. Concentration series of CD32bECDHis in HBS-EP buffer were injected over the immobilized antibodies at a flow rate of 30 μl/min for 180 sec. Regeneration of the HuMab surface was performed by injection of 10 mM Glycine-HCl pH 2.0 or 10 mM sodium acetate pH 3.0. […] Kinetic analysis is performed using double reference subtraction and model 1:1 (langmuir) binding analysis. Specificity was studied by injecting CD32aECDHis at a concentration of […] over immobilized HuMab and isotype control antibodies under the same conditions as for the CD32b measurements.

Kd | koff | kon | Binder
0.9 nM | 0.00126 s⁻¹ | 1.44e+06 M⁻¹ s⁻¹ | B1
2.4 nM | 0.00363 s⁻¹ | 1.54e+06 M⁻¹ s⁻¹ | B2
0.7 nM | 0.00103 s⁻¹ | 1.48e+06 M⁻¹ s⁻¹ | B3
1.3 nM | 0.00199 s⁻¹ | 1.58e+06 M⁻¹ s⁻¹ | B4
1.3 nM | 0.00179 s⁻¹ | 1.4e+06 M⁻¹ s⁻¹ | B5
1 nM | 0.00156 s⁻¹ | 1.54e+06 M⁻¹ s⁻¹ | B6
